Experimental data taken from article PMC6037025.

Biological target: CHIP (UniProt Q9UNE7)
Experiment: co-IP with anti-MYC-agarose, Western blot
Details: reference: Flag-IRS4 wild type; sites S859

binding against the reference: lost
Substance: IRS4 (from UniProt O14654) Flag-IRS4 S859A
